The first assay has as its target recombinant Plasmodium falciparum circumsporozoite protein (CSP) (Plasmodium falciparum) (UniProt P19597). In words: cell-based or functional assay.
With 317 DE-LS (antibody), the Geo Mean EC50 (ug/ml), ADNKA, Donor 1 amounted to 0.0027 µg/mL; the Geo Mean EC50 (ug/ml), ADNKA, Donor 2 was found to be 0.0022 µg/mL; the Geo Mean EC50 (ug/ml), ADNKA, Donor 3 is 0.0276 µg/mL; the Geo Mean EC50 (ug/ml), ADNKA, Donor 4 worked out at 0.0111 µg/mL.

As for CIS43 LS (antibody), the Geo Mean EC50 (ug/ml), ADNKA, Donor 1 was 0.0277 µg/mL; the Geo Mean EC50 (ug/ml), ADNKA, Donor 2 came out at 0.143 µg/mL; the Geo Mean EC50 (ug/ml), ADNKA, Donor 3 came out at 0.104 µg/mL; the Geo Mean EC50 (ug/ml), ADNKA, Donor 4 stood at 0.0643 µg/mL.

In the case of L9 LS (antibody), the Geo Mean EC50 (ug/ml), ADNKA, Donor 1 was 0.038 µg/mL; the Geo Mean EC50 (ug/ml), ADNKA, Donor 2 stood at 0.514 µg/mL; the Geo Mean EC50 (ug/ml), ADNKA, Donor 3 is 0.0887 µg/mL; the Geo Mean EC50 (ug/ml), ADNKA, Donor 4 is 0.0286 µg/mL.

317 LS (antibody): the Geo Mean EC50 (ug/ml), ADNKA, Donor 1 came out at 0.0567 µg/mL; the Geo Mean EC50 (ug/ml), ADNKA, Donor 2 worked out at 0.231 µg/mL; the Geo Mean EC50 (ug/ml), ADNKA, Donor 3 worked out at 0.151 µg/mL; the Geo Mean EC50 (ug/ml), ADNKA, Donor 4 was determined as 0.0709 µg/mL.

The target of the next assay is human FcRn (human) (UniProt P55899). In words: SPR, human FcRn, pH 6.0. (In general: Surface plasmon resonance follows binding to a sensor surface in real time, without labels.)
Sequence of human FcRn (human) (P55899 24-297 limits assumed, form in doubt, chain 1 of 2): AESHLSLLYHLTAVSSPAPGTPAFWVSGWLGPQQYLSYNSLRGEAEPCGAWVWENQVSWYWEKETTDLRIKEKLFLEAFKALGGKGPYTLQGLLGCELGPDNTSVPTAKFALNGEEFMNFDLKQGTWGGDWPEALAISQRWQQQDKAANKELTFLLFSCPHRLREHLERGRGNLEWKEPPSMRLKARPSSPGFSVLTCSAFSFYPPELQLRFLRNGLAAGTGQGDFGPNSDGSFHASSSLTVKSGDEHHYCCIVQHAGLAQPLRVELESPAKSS
Sequence of human FcRn (human) (chain, as listed by the source limits assumed, form in doubt, chain 2 of 2): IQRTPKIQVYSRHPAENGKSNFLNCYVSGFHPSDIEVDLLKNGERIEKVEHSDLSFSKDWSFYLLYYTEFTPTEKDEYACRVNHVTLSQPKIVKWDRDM
For hIgG1 WT control (antibody), the Kd (usually the concentration at which binding is half-saturated) was 102 nM.

L9 (antibody): the Kd worked out at 174 nM.

The target in a further assay is recombinant Plasmodium falciparum circumsporozoite protein (CSP) (Plasmodium falciparum) (UniProt P19597). Nature of the assay: SPR, recombinant CSP; geometric mean, n=2.
Sequence of recombinant Plasmodium falciparum circumsporozoite protein (CSP) (Plasmodium falciparum) (P19597 21-375 limits assumed): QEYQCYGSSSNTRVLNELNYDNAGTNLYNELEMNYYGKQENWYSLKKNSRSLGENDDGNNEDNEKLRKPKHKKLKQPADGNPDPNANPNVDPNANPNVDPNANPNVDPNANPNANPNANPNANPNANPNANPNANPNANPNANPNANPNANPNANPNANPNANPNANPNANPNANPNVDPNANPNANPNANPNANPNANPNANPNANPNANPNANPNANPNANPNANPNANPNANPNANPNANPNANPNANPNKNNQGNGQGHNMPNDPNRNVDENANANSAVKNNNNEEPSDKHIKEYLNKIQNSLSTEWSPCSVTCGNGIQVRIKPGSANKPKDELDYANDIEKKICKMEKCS
L9 (antibody): the Kd was 0.04 nM.

These data come from patent US20250296995A1.
